Experimental data taken from the supplement of paper PMC10065799, “High-throughput profiling of sequence recognition by tyrosine kinases and SH2 domains using bacterial peptide display” (eLife, 2023).
One block for each sequence: values may come before it.

Columns and labels:
MERTK = MERTK (UniProt Q12866); experiment: phosphorylation enrichment, bacterial display (enrichment ratio); higher = better substrate or ligand; peptides without Tyr show the background
Fer (mouse) = experiment: as above
AncSZ = experiment: as above
FGFR1 = FGFR1 (UniProt P11362); experiment: as above
FGFR3 = FGFR3 (UniProt P22607); experiment: as above
EPHB1 = EPHB1 (UniProt P54762); experiment: as above
c-Src = experiment: as above
Fes = Fes (UniProt P07332); experiment: as above
Fyn = Fyn (UniProt P06241); experiment: as above
Hck = Hck (UniProt P08631); experiment: as above
c-Abl (mouse) = experiment: as above
EPHB2 = EPHB2 (UniProt P29323); experiment: as above
Jak2 = Jak2 (UniProt O60674); experiment: as above
SHP2-C SH2 = experiment: SH2 binding enrichment of the phosphorylated peptide, bacterial display (enrichment ratio); higher = better substrate or ligand; peptides without Tyr show the background
Grb2 SH2 = Grb2 SH2 (UniProt P62993); experiment: as above
c-Src SH2 = experiment: as above
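Wherever SH2 binding enrichment of the phosphorylated peptide, bacterial display is given: peptide library displayed on the E. coli surface as eCPX fusions, selected cells deep-sequenced, score is each peptide's frequency after selection divided by its frequency in the input.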
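Wherever phosphorylation enrichment, bacterial display is given: 11-residue human phosphosite peptides and single-mutation variants displayed on the E. coli surface, counted by deep sequencing, each peptide's frequency after selection divided by its frequency in the unselected input library; frequency after pTyr selection over input frequency; kinase dosed for 20-30% of maximal phosphorylation in three min.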

Sequence of EPHB1 (P54762 whole entry, looked up): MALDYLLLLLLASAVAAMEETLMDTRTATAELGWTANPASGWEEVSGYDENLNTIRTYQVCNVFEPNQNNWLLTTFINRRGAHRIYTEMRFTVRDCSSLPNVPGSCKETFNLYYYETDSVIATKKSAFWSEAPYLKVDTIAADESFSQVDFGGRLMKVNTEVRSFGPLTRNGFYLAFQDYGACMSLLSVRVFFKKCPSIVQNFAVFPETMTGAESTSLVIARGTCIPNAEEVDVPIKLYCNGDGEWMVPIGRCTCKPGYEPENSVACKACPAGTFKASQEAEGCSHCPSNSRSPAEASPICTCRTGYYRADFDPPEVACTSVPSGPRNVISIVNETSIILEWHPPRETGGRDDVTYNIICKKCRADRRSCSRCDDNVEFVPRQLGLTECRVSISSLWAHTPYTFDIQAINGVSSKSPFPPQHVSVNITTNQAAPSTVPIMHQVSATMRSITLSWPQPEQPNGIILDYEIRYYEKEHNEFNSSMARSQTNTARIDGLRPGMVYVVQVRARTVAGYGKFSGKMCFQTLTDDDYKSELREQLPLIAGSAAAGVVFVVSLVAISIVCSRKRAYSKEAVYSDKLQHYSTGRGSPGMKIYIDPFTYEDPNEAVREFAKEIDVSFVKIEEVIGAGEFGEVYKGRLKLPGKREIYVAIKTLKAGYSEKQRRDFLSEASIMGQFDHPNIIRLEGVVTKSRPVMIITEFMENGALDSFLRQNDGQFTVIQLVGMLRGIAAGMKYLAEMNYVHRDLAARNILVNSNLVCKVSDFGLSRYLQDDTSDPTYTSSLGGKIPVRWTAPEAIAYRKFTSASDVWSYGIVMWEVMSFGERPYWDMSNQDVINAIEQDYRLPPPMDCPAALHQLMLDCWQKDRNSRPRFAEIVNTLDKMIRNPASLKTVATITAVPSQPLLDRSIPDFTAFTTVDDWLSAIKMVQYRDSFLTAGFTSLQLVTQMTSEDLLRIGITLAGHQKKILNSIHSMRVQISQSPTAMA
Sequence of MERTK (Q12866 whole entry, looked up): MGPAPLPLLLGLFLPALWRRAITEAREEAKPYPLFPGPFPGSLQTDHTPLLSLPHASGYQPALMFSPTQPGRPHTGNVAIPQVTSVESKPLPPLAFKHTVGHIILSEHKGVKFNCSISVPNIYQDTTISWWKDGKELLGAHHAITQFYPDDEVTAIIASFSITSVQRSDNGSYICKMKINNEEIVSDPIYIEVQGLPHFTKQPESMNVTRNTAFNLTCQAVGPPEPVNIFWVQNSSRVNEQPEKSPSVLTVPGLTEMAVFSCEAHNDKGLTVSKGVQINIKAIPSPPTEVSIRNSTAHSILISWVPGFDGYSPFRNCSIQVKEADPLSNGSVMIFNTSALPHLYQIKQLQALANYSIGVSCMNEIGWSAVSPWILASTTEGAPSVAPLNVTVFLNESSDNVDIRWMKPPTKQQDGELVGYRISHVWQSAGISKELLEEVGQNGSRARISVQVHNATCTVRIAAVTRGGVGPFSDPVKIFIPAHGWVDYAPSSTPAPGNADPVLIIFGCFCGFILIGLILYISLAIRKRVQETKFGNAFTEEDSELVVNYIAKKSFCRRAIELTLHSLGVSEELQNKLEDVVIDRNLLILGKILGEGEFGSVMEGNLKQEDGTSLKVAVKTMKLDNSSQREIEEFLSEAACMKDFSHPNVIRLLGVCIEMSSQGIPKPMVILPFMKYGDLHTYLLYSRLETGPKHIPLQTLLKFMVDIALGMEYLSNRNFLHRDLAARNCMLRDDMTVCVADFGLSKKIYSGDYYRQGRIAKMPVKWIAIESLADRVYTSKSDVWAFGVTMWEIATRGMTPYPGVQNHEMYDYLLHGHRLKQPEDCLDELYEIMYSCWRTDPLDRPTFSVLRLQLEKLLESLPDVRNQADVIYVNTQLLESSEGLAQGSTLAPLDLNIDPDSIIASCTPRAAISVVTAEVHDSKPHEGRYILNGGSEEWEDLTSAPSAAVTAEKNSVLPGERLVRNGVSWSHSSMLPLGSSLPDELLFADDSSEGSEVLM
Sequence of Hck (P08631 whole entry, looked up): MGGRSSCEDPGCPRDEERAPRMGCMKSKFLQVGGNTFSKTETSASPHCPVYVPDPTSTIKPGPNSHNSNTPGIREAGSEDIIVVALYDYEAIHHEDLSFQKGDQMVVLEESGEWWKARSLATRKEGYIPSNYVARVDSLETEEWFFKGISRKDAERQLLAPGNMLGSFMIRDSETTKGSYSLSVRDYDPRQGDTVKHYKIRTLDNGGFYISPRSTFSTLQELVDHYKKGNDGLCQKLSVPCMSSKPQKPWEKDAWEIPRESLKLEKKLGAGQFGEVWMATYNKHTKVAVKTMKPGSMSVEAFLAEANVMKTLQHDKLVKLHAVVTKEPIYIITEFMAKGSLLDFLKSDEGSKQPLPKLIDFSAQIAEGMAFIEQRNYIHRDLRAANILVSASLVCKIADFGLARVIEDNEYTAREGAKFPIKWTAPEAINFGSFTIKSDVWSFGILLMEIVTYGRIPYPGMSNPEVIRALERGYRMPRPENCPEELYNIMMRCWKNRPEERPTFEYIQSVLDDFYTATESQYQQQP
Sequence of Fyn (P06241 whole entry, looked up): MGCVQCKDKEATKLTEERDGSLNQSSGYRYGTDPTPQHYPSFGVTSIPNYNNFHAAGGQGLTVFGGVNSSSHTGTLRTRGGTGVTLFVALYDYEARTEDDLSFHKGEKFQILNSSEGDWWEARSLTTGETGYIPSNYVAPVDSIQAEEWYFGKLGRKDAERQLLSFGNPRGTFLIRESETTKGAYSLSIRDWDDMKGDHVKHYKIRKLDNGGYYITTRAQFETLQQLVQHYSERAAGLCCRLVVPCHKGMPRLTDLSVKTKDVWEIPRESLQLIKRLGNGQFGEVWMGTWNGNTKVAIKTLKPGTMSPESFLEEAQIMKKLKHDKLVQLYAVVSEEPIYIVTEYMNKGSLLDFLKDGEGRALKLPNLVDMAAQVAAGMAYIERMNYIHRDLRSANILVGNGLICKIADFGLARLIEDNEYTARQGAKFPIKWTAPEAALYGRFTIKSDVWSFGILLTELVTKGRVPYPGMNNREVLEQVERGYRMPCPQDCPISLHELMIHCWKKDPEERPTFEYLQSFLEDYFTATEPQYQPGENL
Sequence of Fes (P07332 whole entry, looked up): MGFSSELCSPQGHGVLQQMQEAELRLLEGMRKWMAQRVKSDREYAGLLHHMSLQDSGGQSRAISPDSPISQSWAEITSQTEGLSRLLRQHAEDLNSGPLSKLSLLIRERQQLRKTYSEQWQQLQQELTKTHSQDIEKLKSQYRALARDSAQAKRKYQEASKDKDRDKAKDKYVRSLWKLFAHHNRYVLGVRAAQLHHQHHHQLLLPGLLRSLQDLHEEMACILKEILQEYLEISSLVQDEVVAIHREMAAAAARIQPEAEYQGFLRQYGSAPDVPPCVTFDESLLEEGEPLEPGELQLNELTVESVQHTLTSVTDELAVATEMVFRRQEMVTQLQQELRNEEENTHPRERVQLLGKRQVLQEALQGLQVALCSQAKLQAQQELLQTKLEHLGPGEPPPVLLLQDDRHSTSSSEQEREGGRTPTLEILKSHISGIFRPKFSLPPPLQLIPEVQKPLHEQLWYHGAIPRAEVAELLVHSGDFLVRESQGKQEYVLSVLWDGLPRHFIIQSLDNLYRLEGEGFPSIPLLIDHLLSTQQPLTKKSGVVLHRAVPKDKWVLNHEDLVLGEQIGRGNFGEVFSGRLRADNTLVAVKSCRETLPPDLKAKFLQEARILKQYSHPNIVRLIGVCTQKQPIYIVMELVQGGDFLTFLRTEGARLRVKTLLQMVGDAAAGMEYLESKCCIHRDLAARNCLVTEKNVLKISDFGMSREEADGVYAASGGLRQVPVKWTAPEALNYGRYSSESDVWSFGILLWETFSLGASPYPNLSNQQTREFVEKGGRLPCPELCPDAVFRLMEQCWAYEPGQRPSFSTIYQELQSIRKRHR
Sequence of EPHB2 (P29323 whole entry, looked up): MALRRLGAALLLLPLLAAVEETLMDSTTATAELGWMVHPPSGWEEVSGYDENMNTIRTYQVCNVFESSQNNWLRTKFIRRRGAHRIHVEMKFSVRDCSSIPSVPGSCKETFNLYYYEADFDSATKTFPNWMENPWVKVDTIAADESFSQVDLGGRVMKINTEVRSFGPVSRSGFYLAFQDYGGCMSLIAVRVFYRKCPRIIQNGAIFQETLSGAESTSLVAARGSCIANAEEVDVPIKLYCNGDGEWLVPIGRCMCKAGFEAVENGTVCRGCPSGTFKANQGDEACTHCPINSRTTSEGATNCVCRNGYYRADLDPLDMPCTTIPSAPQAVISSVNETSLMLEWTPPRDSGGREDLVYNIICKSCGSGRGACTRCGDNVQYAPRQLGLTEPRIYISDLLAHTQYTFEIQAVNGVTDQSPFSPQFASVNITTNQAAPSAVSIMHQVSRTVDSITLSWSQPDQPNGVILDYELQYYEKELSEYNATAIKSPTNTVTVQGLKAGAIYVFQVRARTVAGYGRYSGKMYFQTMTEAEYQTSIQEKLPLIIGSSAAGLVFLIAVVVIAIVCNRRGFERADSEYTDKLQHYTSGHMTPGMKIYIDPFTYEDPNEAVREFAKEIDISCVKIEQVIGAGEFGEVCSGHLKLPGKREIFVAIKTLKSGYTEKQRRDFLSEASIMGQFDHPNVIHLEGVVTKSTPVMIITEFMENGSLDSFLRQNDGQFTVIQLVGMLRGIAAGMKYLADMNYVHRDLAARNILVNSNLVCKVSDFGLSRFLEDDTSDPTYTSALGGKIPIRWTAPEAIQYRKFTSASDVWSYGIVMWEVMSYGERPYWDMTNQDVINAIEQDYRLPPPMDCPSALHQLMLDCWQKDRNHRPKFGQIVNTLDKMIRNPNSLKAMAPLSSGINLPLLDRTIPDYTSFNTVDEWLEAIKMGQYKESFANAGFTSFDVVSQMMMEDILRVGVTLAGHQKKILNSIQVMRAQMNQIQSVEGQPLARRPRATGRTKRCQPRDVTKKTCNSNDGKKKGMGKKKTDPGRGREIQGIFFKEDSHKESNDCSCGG

SH2 binding enrichment (SHP2-C SH2): 0.771
SH2 binding enrichment (Grb2 SH2): 0.933
SH2 binding enrichment (c-Src SH2): 0.582
Sequence: GLRSFYETSKM [MAGED2_Y449_YF]
phosphorylation enrichment (MERTK): 0.374
phosphorylation enrichment (Fer (mouse)): 0.505
phosphorylation enrichment (AncSZ): 0.596
phosphorylation enrichment (FGFR1): 0.385
phosphorylation enrichment (FGFR3): 0.42
phosphorylation enrichment (EPHB1): 0.438
phosphorylation enrichment (c-Src): 0.437
phosphorylation enrichment (Fes): 0.739
phosphorylation enrichment (Fyn): 0.331
phosphorylation enrichment (Hck): 0.506
phosphorylation enrichment (c-Abl (mouse)): 0.806
phosphorylation enrichment (EPHB2): 0.342
phosphorylation enrichment (Jak2): 0.707

SH2 binding enrichment (SHP2-C SH2): 0.933
SH2 binding enrichment (Grb2 SH2): 1.03
SH2 binding enrichment (c-Src SH2): 0.916
Sequence: FHRQLYHKCTH [F12_Y58_YF]
phosphorylation enrichment (MERTK): 0.385
phosphorylation enrichment (Fer (mouse)): 0.398
phosphorylation enrichment (AncSZ): 0.601
phosphorylation enrichment (FGFR1): 0.387
phosphorylation enrichment (FGFR3): 0.442
phosphorylation enrichment (EPHB1): 0.855
phosphorylation enrichment (c-Src): 0.375
phosphorylation enrichment (Fes): 0.76
phosphorylation enrichment (Fyn): 0.371
phosphorylation enrichment (Hck): 0.425
phosphorylation enrichment (c-Abl (mouse)): 0.502
phosphorylation enrichment (EPHB2): 0.495
phosphorylation enrichment (Jak2): 0.623

SH2 binding enrichment (SHP2-C SH2): 1.58
SH2 binding enrichment (Grb2 SH2): 0.76
SH2 binding enrichment (c-Src SH2): 0.673
Sequence: LVGTPYWMAPE [PAK5_Y608]
phosphorylation enrichment (MERTK): 0.856
phosphorylation enrichment (Fer (mouse)): 0.573
phosphorylation enrichment (AncSZ): 0.91
phosphorylation enrichment (FGFR1): 2.09
phosphorylation enrichment (FGFR3): 1.84
phosphorylation enrichment (EPHB1): 0.775
phosphorylation enrichment (c-Src): 2.71
phosphorylation enrichment (Fes): 1.15
phosphorylation enrichment (Fyn): 0.683
phosphorylation enrichment (Hck): 0.459
phosphorylation enrichment (c-Abl (mouse)): 0.694
phosphorylation enrichment (EPHB2): 0.437
phosphorylation enrichment (Jak2): 1.14

SH2 binding enrichment (SHP2-C SH2): 0.894
SH2 binding enrichment (Grb2 SH2): 0.823
SH2 binding enrichment (c-Src SH2): 1.12
Sequence: YAKSVYWENTL [NUP107_Y296]
phosphorylation enrichment (MERTK): 0.526
phosphorylation enrichment (Fer (mouse)): 0.492
phosphorylation enrichment (AncSZ): 1.02
phosphorylation enrichment (FGFR1): 0.49
phosphorylation enrichment (FGFR3): 0.619
phosphorylation enrichment (EPHB1): 0.584
phosphorylation enrichment (c-Src): 0.871
phosphorylation enrichment (Fes): 0.967
phosphorylation enrichment (Fyn): 0.61
phosphorylation enrichment (Hck): 0.674
phosphorylation enrichment (c-Abl (mouse)): 0.728
phosphorylation enrichment (EPHB2): 0.485
phosphorylation enrichment (Jak2): 0.821

SH2 binding enrichment (SHP2-C SH2): 1.46
SH2 binding enrichment (Grb2 SH2): 1.12
SH2 binding enrichment (c-Src SH2): 0.787
Sequence: ILTLKYPIKHG [ACTA1_Y71_E74K]
phosphorylation enrichment (MERTK): 0.344
phosphorylation enrichment (Fer (mouse)): 0.413
phosphorylation enrichment (AncSZ): 0.523
phosphorylation enrichment (FGFR1): 0.449
phosphorylation enrichment (FGFR3): 0.497
phosphorylation enrichment (EPHB1): 0.426
phosphorylation enrichment (c-Src): 0.341
phosphorylation enrichment (Fes): 0.588
phosphorylation enrichment (Fyn): 0.431
phosphorylation enrichment (Hck): 0.349
phosphorylation enrichment (c-Abl (mouse)): 0.367
phosphorylation enrichment (EPHB2): 0.518
phosphorylation enrichment (Jak2): 0.558

SH2 binding enrichment (SHP2-C SH2): 0.565
SH2 binding enrichment (Grb2 SH2): 0.629
SH2 binding enrichment (c-Src SH2): 0.48
Sequence: QKKEEYKMALY [F8_Y1990_R1985Q]
phosphorylation enrichment (MERTK): 0.693
phosphorylation enrichment (Fer (mouse)): 0.895
phosphorylation enrichment (AncSZ): 1.72
phosphorylation enrichment (FGFR1): 0.527
phosphorylation enrichment (FGFR3): 0.582
phosphorylation enrichment (EPHB1): 0.984
phosphorylation enrichment (c-Src): 0.978
phosphorylation enrichment (Fes): 1.41
phosphorylation enrichment (Fyn): 0.603
phosphorylation enrichment (Hck): 0.496
phosphorylation enrichment (c-Abl (mouse)): 0.902
phosphorylation enrichment (EPHB2): 0.626
phosphorylation enrichment (Jak2): 1.63

SH2 binding enrichment (SHP2-C SH2): 1.17
SH2 binding enrichment (Grb2 SH2): 2.09
SH2 binding enrichment (c-Src SH2): 1.47
Sequence: RALRHYYKLNI [ETV6_Y401]
phosphorylation enrichment (MERTK): 0.763
phosphorylation enrichment (Fer (mouse)): 0.402
phosphorylation enrichment (AncSZ): 1.07
phosphorylation enrichment (FGFR1): 1.46
phosphorylation enrichment (FGFR3): 1.03
phosphorylation enrichment (EPHB1): 1.29
phosphorylation enrichment (c-Src): 0.201
phosphorylation enrichment (Fes): 0.606
phosphorylation enrichment (Fyn): 0.685
phosphorylation enrichment (Hck): 0.95
phosphorylation enrichment (c-Abl (mouse)): 0.371
phosphorylation enrichment (EPHB2): 0.415
phosphorylation enrichment (Jak2): 0.504

SH2 binding enrichment (SHP2-C SH2): 0.595
SH2 binding enrichment (Grb2 SH2): 0.998
SH2 binding enrichment (c-Src SH2): 0.566
Sequence: RNAAEYLLSSG [ABL1_Y139]
phosphorylation enrichment (MERTK): 0.294
phosphorylation enrichment (Fer (mouse)): 0.596
phosphorylation enrichment (AncSZ): 0.765
phosphorylation enrichment (FGFR1): 0.456
phosphorylation enrichment (FGFR3): 0.446
phosphorylation enrichment (EPHB1): 0.38
phosphorylation enrichment (c-Src): 0.34
phosphorylation enrichment (Fes): 0.723
phosphorylation enrichment (Fyn): 0.35
phosphorylation enrichment (Hck): 0.48
phosphorylation enrichment (c-Abl (mouse)): 0.353
phosphorylation enrichment (EPHB2): 0.345
phosphorylation enrichment (Jak2): 0.667
